Measurements taken from PMC2756985 (Biochemistry, 2009).

Assay: Oxygen dissociation rates of DevS proteins, stopped flow
Assay type: binding, Mycobacterium tuberculosis

B1: full-length Y171F DevS (protein, UniProt P9WGK3 1-578, looked up, variant Y171F)
chain: MTTGGLVDENDGAAMRPLRHTLSQLRLHELLVEVQDRVEQIVEGRDRLDGLVEAMLVVTAGLDLEATLRAIVHSATSLVDARYGAMEVHDRQHRVLHFVYEGIDEETVRRIGHLPKGLGVIGLLIEDPKPLRLDDVSAHPASIGFPPYHPPMRTFLGVPVRVRDESFGTLFLTDKTNGQPFSDDDEVLVQALAAAAGIAVANARLYQQAKARQSWIEATRDIATELLSGTEPATVFRLVAAEALKLTAADAALVAVPVDEDMPAADVGELLVIETVGSAVASIVGRTIPVAGAVLREVFVNGIPRRVDRVDLEGLDELADAGPALLLPLRARGTVAGVVVVLSQGGPGAFTDEQLEMMAAFADQAALAWQLATSQRRMRELDVLTDRDRIARDLHDHVIQRLFAIGLALQGAVPHERNPEVQQRLSDVVDDLQDVIQEIRTTIYDLHGASQGITRLRQRIDAAVAQFADSGLRTSVQFVGPLSVVDSALADQAEAVVREAVSNAVRHAKASTLTVRVKVDDDLCIEVTDNGRGLPDEFTGSGLTNLRQRAEQAGGEFTLASVPGASGTVLRWSAPLSQ
modifications: full-length
O2 koff: 3.85 ± 0.69 ^b s^−1
